Experimental findings from PMC7615550, “Structural mechanism of outer kinetochore Dam1:Ndc80 complex assembly on microtubules” (Science (New York, N.Y.), 2023) are described below.

B2: Dam1 subunit of the Dam1 complex (natural protein, S. cerevisiae)
chain: MSEDKAKLGTTRSATEYRLSIGSAPTSRRSSMGESSSLMKFADQEGLTSSVGEYNENTIQQLLLPKIRELSDSIITLDSNFTRLNFIHESLADLNESLGSLLYGIMSNSWCVEFSQAPHDIQDDLIAIKQLKSLEDEKNNLVMELSNMERGIKRKKDEQGENDLAKASQNKQFNQPLFPSSQVRKYRSYDNRDKRKPSKIGNNLQVENEEDYEDDTSSEASFVLNPTNIGMSKSSQGHVTKTTRLNNNTNSKLRRKSILHTIRNSIASGADLPIENDNVVNLGDLHPNNRISLGSGAARVVNGPVTKNRNSMFSGRAERKPTESRHSVAKKTEKKINTRPPFR
notes: Dam1, S. cerevisiae, as a subunit of the reconstituted Dam1 complex; Stood in the assay inside the whole Dam1c; also called Dam1^Staple (residues 1-26); Dam1^C-ter; source: purified as part of Dam1c
B3: Spc34 subunit of the Dam1 complex (natural protein, S. cerevisiae)
chain: MGESLDRCIDDINRAVDSMSTLYFKPPGIFHNAILQGASNKASIRKDITRLIKDCNHDEAYLLFKVNPEKQSVSRRDGKEGVFDYVIKRDTDMKRNRRLGRPGEKPIIHVPKEVYLNKDRLDLNNKRRRTATTSGGGLNGFIFDTDLIGSSVISNSSSGTFKALSAVFKDDPQIQRLLYALENGSVLMEEESNNQRRKTIFVEDFPTDLILKVMAEVTDLWPLTEFKQDYDQLYHNYEQLSSKLRFIKKEVLLQDDRLKTMSQYHPSSSHDVAKIIRKEKDEIRRLEMEIANLQE
notes: Spc34, S. cerevisiae, as a subunit of the reconstituted Dam1 complex; Stood in the assay inside the whole Dam1c; source: purified as part of Dam1c

In assay [1] the target is microtubules (α/β-tubulin) (UniProt P02554). Briefly: optical trap force-rupture assay. As to conditions: Ndc80c alone (no Dam1c) on microtubules; N=81 (parent N=119); parent: 5.4.
Assay [2] addresses Dam1 complex (ten-subunit, S. cerevisiae), wild type, P53267;Q12248;P35734;P69851;P36131;Q03954. Briefly: optical trap force-rupture assay. The note with it: Ndc80c + Dam1c on microtubules; N=154 (parent N=150); parent: 10.4.
Assay [3] addresses Ndc80 complex (heterotetramer of Ndc80, Nuf2, Spc24 and Spc25, S. cerevisiae), wild type (S. cerevisiae) (UniProt P40460).
Assay [4] addresses microtubules (α/β-tubulin) (UniProt P02554). Briefly: optical trap force-rupture assay; rupture of outer kinetochore - microtubule attachments; each event is the maximum trap force before rupturing; medians; Ndc80c alone.
The target of assay [5] is Dam1 complex (ten-subunit, S. cerevisiae), wild type (S. cerevisiae) (UniProt P53267). Briefly: cryo-EM structure; outer kinetochore Dam1c:Ndc80c:microtubule complexes assembled on cryo-EM grids by step-wise addition of taxol-stabilized microtubules, Ndc80c, and Dam1c.
For assay [6], the target named is B3. The assay is described as above. The note with it: both partners purified.
Assay [7] addresses T1, Ndc80 subunit of the Ndc80 complex (S. cerevisiae, UniProt P40460 1-691).
T1 construct: Ndc80, S. cerevisiae, as a subunit of the reconstituted Ndc80 complex; Stood in the assay inside the whole Ndc80c; also called Ndc80^CH; Ndc80^CC; source: purified as part of Ndc80c
The assay is described as above. As to conditions: both partners purified.

Assay [8] addresses T2, Ndc80 complex (heterotetramer of Ndc80, Nuf2, Spc24 and Spc25, S. cerevisiae), wild type (S. cerevisiae, UniProt P40460 1-691; P33895 1-451; Q04477 1-213; P40014 1-221).
T2 construct: Ndc80 subunit of the S. cerevisiae Ndc80 complex; Nuf2 subunit of the S. cerevisiae Ndc80 complex; Spc24 subunit of the S. cerevisiae Ndc80 complex (no cryo-EM density visible); Spc25 subunit of the S. cerevisiae Ndc80 complex (no cryo-EM density visible); also called Ndc80c^CH; Ndc80^CC:Nuf2^CC; source: purified; copies: + + +
The assay is described as above. As to conditions: both partners purified.

For assay [9], the target named is B2. The description is as above. The note with it: both partners purified.

T2 sequence (P40460 whole entry, chain 1 of 4): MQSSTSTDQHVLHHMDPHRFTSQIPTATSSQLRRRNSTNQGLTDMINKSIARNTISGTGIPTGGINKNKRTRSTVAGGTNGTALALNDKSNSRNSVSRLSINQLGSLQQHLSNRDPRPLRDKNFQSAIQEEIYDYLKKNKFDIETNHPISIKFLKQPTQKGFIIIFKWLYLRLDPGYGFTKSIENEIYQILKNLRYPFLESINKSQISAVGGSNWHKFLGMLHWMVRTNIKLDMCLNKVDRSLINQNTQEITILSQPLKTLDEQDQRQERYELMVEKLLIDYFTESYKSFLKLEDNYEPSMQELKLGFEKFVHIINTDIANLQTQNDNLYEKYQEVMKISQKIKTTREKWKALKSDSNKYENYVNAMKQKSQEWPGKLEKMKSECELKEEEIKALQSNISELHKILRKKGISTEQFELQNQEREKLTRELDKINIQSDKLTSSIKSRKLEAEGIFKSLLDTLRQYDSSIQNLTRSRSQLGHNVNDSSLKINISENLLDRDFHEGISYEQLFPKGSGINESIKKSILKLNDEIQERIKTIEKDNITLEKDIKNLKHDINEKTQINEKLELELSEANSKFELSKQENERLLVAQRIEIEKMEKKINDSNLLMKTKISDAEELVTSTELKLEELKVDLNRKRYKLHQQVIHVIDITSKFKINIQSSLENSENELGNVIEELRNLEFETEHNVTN
T2 sequence (P33895 whole entry, chain 2 of 4): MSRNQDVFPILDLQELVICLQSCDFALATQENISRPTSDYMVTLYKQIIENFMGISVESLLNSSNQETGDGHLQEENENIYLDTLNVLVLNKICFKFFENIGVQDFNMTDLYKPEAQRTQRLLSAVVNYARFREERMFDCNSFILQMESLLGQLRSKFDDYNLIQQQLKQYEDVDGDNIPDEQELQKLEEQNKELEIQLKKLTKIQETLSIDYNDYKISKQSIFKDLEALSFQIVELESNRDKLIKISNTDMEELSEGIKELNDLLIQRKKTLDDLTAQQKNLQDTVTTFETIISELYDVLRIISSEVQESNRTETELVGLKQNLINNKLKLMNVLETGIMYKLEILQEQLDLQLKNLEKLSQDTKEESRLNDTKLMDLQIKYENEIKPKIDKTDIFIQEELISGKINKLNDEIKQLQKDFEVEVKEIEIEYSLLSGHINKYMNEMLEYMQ
T2 sequence (Q04477 whole entry, chain 3 of 4): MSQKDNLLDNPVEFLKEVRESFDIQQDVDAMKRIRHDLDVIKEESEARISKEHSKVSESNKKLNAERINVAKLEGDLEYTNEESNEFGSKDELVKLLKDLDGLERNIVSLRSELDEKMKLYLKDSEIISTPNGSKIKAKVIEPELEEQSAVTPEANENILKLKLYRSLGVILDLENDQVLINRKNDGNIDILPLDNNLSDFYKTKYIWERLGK
T2 sequence (P40014 whole entry, chain 4 of 4): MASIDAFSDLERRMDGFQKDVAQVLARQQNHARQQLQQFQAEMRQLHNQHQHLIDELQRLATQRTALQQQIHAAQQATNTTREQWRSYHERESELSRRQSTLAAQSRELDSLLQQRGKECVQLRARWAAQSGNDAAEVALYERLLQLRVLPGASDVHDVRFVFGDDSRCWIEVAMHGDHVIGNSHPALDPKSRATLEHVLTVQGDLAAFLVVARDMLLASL
Chain of Ndc80 complex (heterotetramer of Ndc80, Nuf2, Spc24 and Spc25, S. cerevisiae), wild type (S. cerevisiae) (P40460 whole entry, chain 1 of 4): as the sequence (P40460 whole entry, chain 1 of 4) above
Chain of Ndc80 complex (heterotetramer of Ndc80, Nuf2, Spc24 and Spc25, S. cerevisiae), wild type (S. cerevisiae) (P33895 whole entry, chain 2 of 4, further chain): as the sequence (P33895 whole entry, chain 2 of 4) above
Chain of Ndc80 complex (heterotetramer of Ndc80, Nuf2, Spc24 and Spc25, S. cerevisiae), wild type (S. cerevisiae) (Q04477 whole entry, chain 3 of 4, further chain): as the sequence (Q04477 whole entry, chain 3 of 4) above
Chain of Ndc80 complex (heterotetramer of Ndc80, Nuf2, Spc24 and Spc25, S. cerevisiae), wild type (S. cerevisiae) (P40014 whole entry, chain 4 of 4, further chain): as the sequence (P40014 whole entry, chain 4 of 4) above
T1 sequence (P40460 whole entry, one chain of several): as the sequence (P40460 whole entry, chain 1 of 4) above

As for “Ndc80 complex (heterotetramer of Ndc80, Nuf2, Spc24 and Spc25, S. cerevisiae), wild type (from UniProt P40460;P33895;Q04477;P40014) E568R; V590W; L594E; E597R”, the other: median rupture force stood at 4.5 pN in [1] and 8.9 pN in assay [2].
As to “Dam1 complex with the Dam1 C-terminal mutant (I258/L259/I262 mutated) (from UniProt P53267 1-343; Q12248 1-94; P35734 1-292; P69851 1-72; P36131 1-295; Q03954 1-165)”, in [3], the median rupture force of Ndc80c - microtubule attachments in the presence of the Dam1 C-ter mutant Dam1c (optical trap force-rupture assay) worked out at 5.5 pN.
In assay [4], “Ndc80 complex (heterotetramer of Ndc80, Nuf2, Spc24 and Spc25, S. cerevisiae), wild type (from UniProt P40460 1-691; P33895 1-451; Q04477 1-213; P40014 1-221)” yielded a median rupture force of 5.4 pN.
Molecule “Dam1 complex (ten-subunit, S. cerevisiae), wild type (from UniProt P53267 1-343; Q12248 1-94; P35734 1-292; P69851 1-72; P36131 1-295; Q03954 1-165)” registered a stoichiometry N in assay [5] of 16. Moreover, in [3], the median rupture force of Ndc80c - microtubule attachments in the presence of Dam1c (optical trap force-rupture assay) amounted to 10.4 pN.

B1: Spc19 subunit of the Dam1 complex (natural protein, S. cerevisiae)
chain: MTDALEQSVLALEGTVSVLKDSVESLKCANEPSTNLASTMLQTKRVFRLVPEYDVERSKLDLIEEVEPLVRTLGDKLRKSMGRMQRELDTLQQTYELNDLRLKKNISMDDDDALNSPDMGQEYEGRDADDVVMMASSTNEELEELKKLKEKKKQLENKLEILKQK
notes: Spc19, S. cerevisiae, as a subunit of the reconstituted Dam1 complex; Stood in the assay inside the whole Dam1c; source: purified as part of Dam1c
As for B1, the binding result in assay [6] and in assay [7] was “binds” each time.
Take B2: in assay [8], the binding result is “binds”.
On the same count and under the same terms, under B3 stands “binds”.

B4: Dad4 subunit of the Dam1 complex (natural protein, S. cerevisiae)
chain: MENPHEQVQANILSRIIGNVKRLNESVAILNQELVTINNRNKNLEIMGAICDNYHSSVQFNLEATNNKKPPL
notes: Dad4, S. cerevisiae, as a subunit of the reconstituted Dam1 complex; Stood in the assay inside the whole Dam1c; also called Dad4^B; source: purified as part of Dam1c
As for B4, in assay [9], the binding result is on record as “binds”.

B5: Ask1 subunit of the Dam1 complex (natural protein, S. cerevisiae)
chain: MDSASKEETLEKLDQEITVNLQKIDSNLSFCFHKITQDIIPHVATYSEICERIMDSTEWLGTMFQETGLVNLQANAAAPVGNAPVKSLVSNNVGIFPTSAEEASRQSQTDNGPNEADSAVHVNRDVHSMFNNDSIDDFHTANITSTGQILKLPDSSDEDTGSEAVPSREQTDLTGEGHGGADDEQDESTIQRQSRKRKISLLLQQQYGSSSSMVPSPIVPNKMRKQLAHEEHINNDGDNDDENSNNIESSPLKQGHHHPKGQADDNNEGPDEEESTKEVPKPGTIIHFSTNR
notes: Ask1, S. cerevisiae, as a subunit of the reconstituted Dam1 complex; Stood in the assay inside the whole Dam1c; also called Ask1^B; source: purified as part of Dam1c
In the case of B5, the binding result in assay [9] is recorded as “binds”.

B6: Dad1 subunit of the Dam1 complex (natural protein, S. cerevisiae)
chain: MMASTSNDEEKLISTTDKYFIEQRNIVLQEINETMNSILNGLNGLNISLESSIAVGREFQSVSDLWKTLYDGLESLSDEAPIDEQPTLSQSKTK
notes: Dad1, S. cerevisiae, as a subunit of the reconstituted Dam1 complex; Stood in the assay inside the whole Dam1c; also called Dad1^A; source: purified as part of Dam1c
For B6, the binding result in assay [9] is reported as “binds”.
